Assay results as given in the supplement of paper PMC9112550, “Optimization of the antimicrobial peptide Bac7 by deep mutational scanning” (BMC Biology, 2022).

test system: Escherichia coli TOP10; experiment: shrunken log2 fold change of peptide-encoding DNA abundance (4.5 h post-induction vs induction); higher = less antimicrobial activity (less host growth inhibition); conditions: time post-induction: 4.5 h; library: site-saturation at positions 5, 18, 19, 20
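Note: peptides expressed intracellularly from a pBAD plasmid library in pooled LB shake-flask culture, induced with 0.3% L-arabinose, DNA abundance read by NGS, three biological replicates, DESeq2 with apeglm shrinkage.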

RRIRDRPPRLPRPRPRPMFPPRP and RRIRFRPPRLPRPRPRPESHPRP are within 0.2 log units of each other in “shrunken log2 fold change” value: -0.257 for the first, -0.154 for the second.

Compared with RRIRMRPPRLPRPRPRPPILPRP, RRIRSRPPRLPRPRPRPTGDPRP is higher in “shrunken log2 fold change” value: 0.0619 for the first, 0.353 for the second.

RRIRVRPPRLPRPRPRPDLWPRP and RRIRQRPPRLPRPRPRPAVQPRP are within 0.2 log units of each other in “shrunken log2 fold change” value: 0.115 for the first, 0.013 for the second.

Compared with RRIRRRPPRLPRPRPRPSTAPRP, RRIRNRPPRLPRPRPRPWYGPRP is lower in “shrunken log2 fold change” value: 0.297 for the first, -0.56 for the second.

First: RRIRRRPPRLPRPRPRPVWTPRP
Second: RRIRGRPPRLPRPRPRPSDNPRP
The “shrunken log2 fold change” value of the first is higher: 0.436 for the first, -0.165 for the second.

Going from RRIRWRPPRLPRPRPRPGTEPRP to RRIRHRPPRLPRPRPRPFHWPRP, the “shrunken log2 fold change” value falls from 0.403 to -0.0742.

RRIRNRPPRLPRPRPRPFNSPRP and RRIRARPPRLPRPRPRPIDNPRP are within 0.2 log units of each other in “shrunken log2 fold change” value: -0.0382 for the first, -0.0987 for the second.

Compared with RRIRFRPPRLPRPRPRPRGRPRP, RRIRFRPPRLPRPRPRPTDHPRP is lower in “shrunken log2 fold change” value: 0.454 for the first, -0.323 for the second.

RRIRWRPPRLPRPRPRPMHCPRP and RRIRVRPPRLPRPRPRPSRVPRP are within 0.2 log units of each other in “shrunken log2 fold change” value: -0.0635 for the first, 0.0356 for the second.

First: RRIRVRPPRLPRPRPRPQGSPRP
Second: RRIRHRPPRLPRPRPRPPPIPRP
The “shrunken log2 fold change” value of the first is lower: -0.205 for the first, 0.361 for the second.

Compared with RRIRIRPPRLPRPRPRPVSFPRP, RRIRKRPPRLPRPRPRPERPPRP is higher in “shrunken log2 fold change” value: 0.00232 for the first, 0.407 for the second.

RRIRARPPRLPRPRPRPENYPRP and RRIRQRPPRLPRPRPRPGFQPRP are within 0.2 log units of each other in “shrunken log2 fold change” value: 0.0453 for the first, 0.00598 for the second.

RRIRDRPPRLPRPRPRPYLRPRP and RRIRIRPPRLPRPRPRPVMRPRP are within 0.2 log units of each other in “shrunken log2 fold change” value: -0.0137 for the first, 0.144 for the second.

RRIRCRPPRLPRPRPRPRTVPRP and RRIRNRPPRLPRPRPRPKKNPRP are within 0.2 log units of each other in “shrunken log2 fold change” value: 0.0809 for the first, -0.0707 for the second.

RRIRNRPPRLPRPRPRPIAFPRP and RRIRGRPPRLPRPRPRPWCEPRP are within 0.2 log units of each other in “shrunken log2 fold change” value: -0.111 for the first, 0.0333 for the second.

Going from RRIRRRPPRLPRPRPRPPFCPRP to RRIRQRPPRLPRPRPRPHALPRP, the “shrunken log2 fold change” value falls from 0.627 to -0.6.

RRIRKRPPRLPRPRPRPDSAPRP and RRIRYRPPRLPRPRPRPYEHPRP are within 0.2 log units of each other in “shrunken log2 fold change” value: 0.115 for the first, -0.0505 for the second.

RRIRNRPPRLPRPRPRPKWFPRP and RRIRGRPPRLPRPRPRPDSRPRP are within 0.2 log units of each other in “shrunken log2 fold change” value: 0.00131 for the first, 0.122 for the second.

First: RRIRPRPPRLPRPRPRPDNEPRP
Second: RRIRDRPPRLPRPRPRPLRIPRP
The “shrunken log2 fold change” value of the first is lower: -0.0784 for the first, 0.168 for the second.

Compared with RRIRKRPPRLPRPRPRPLHTPRP, RRIRHRPPRLPRPRPRPYREPRP is higher in “shrunken log2 fold change” value: -0.368 for the first, 0.0421 for the second.

Compared with RRIRYRPPRLPRPRPRPVQSPRP, RRIRMRPPRLPRPRPRPPTWPRP is higher in “shrunken log2 fold change” value: -0.017 for the first, 0.627 for the second.

RRIRARPPRLPRPRPRPEAFPRP and RRIRFRPPRLPRPRPRPNRMPRP are within 0.2 log units of each other in “shrunken log2 fold change” value: 0.0217 for the first, 0.0762 for the second.

Compared with RRIRQRPPRLPRPRPRPMVEPRP, RRIRERPPRLPRPRPRPLWVPRP is lower in “shrunken log2 fold change” value: 0.168 for the first, -0.109 for the second.

Compared with RRIRRRPPRLPRPRPRPFARPRP, RRIRRRPPRLPRPRPRPHKHPRP is lower in “shrunken log2 fold change” value: 0.217 for the first, -0.165 for the second.

First: RRIRFRPPRLPRPRPRPQYFPRP
Second: RRIRTRPPRLPRPRPRPVWWPRP
The “shrunken log2 fold change” value of the first is lower: -0.416 for the first, 0.423 for the second.

First: RRIRYRPPRLPRPRPRPIKWPRP
Second: RRIRARPPRLPRPRPRPGPIPRP
The “shrunken log2 fold change” value of the first is lower: 0.0101 for the first, 0.341 for the second.

RRIRCRPPRLPRPRPRPEEYPRP and RRIRIRPPRLPRPRPRPIPKPRP are within 0.2 log units of each other in “shrunken log2 fold change” value: -0.065 for the first, -0.0993 for the second.

Compared with RRIRKRPPRLPRPRPRPVCVPRP, RRIRQRPPRLPRPRPRPGFAPRP is lower in “shrunken log2 fold change” value: 0.573 for the first, 0.249 for the second.

RRIRLRPPRLPRPRPRPRFFPRP and RRIRNRPPRLPRPRPRPWDWPRP are within 0.2 log units of each other in “shrunken log2 fold change” value: 0.0823 for the first, 0.0265 for the second.

First: RRIRYRPPRLPRPRPRPYVMPRP
Second: RRIRNRPPRLPRPRPRPNYMPRP
The “shrunken log2 fold change” value of the first is lower: -1.04 for the first, -0.784 for the second.

First: RRIRDRPPRLPRPRPRPTGAPRP
Second: RRIRVRPPRLPRPRPRPPQAPRP
The “shrunken log2 fold change” value of the first is higher: 1.37 for the first, 0.0808 for the second.

RRIRFRPPRLPRPRPRPYEAPRP and RRIRERPPRLPRPRPRPIHKPRP are within 0.2 log units of each other in “shrunken log2 fold change” value: -0.493 for the first, -0.424 for the second.

Going from RRIRSRPPRLPRPRPRPQGIPRP to RRIRYRPPRLPRPRPRPGCSPRP, the “shrunken log2 fold change” value falls from 0.0897 to -0.214.

RRIRPRPPRLPRPRPRPYQSPRP and RRIRARPPRLPRPRPRPHNEPRP are within 0.2 log units of each other in “shrunken log2 fold change” value: -0.194 for the first, -0.258 for the second.

RRIRCRPPRLPRPRPRPVLMPRP and RRIRHRPPRLPRPRPRPPEHPRP are within 0.2 log units of each other in “shrunken log2 fold change” value: -0.00563 for the first, -0.116 for the second.

First: RRIRWRPPRLPRPRPRPRGFPRP
Second: RRIRGRPPRLPRPRPRPQYEPRP
The “shrunken log2 fold change” value of the first is higher: 0.25 for the first, 0.0238 for the second.

Compared with RRIRRRPPRLPRPRPRPKSEPRP, RRIRIRPPRLPRPRPRPCTWPRP is lower in “shrunken log2 fold change” value: 0.0316 for the first, -0.227 for the second.

With RRIRWRPPRLPRPRPRPGSVPRP the “shrunken log2 fold change” value was 0.306.
